Source: the DeepSol protein solubility set

assay: soluble on expression in E. coli; label from the status in PepcDB or PDB records

Sequence	soluble on expression in E. coli
MGSSHHHHHHSSGLVPRGSHMRGVIRKLNDDGFGVLKGILVPFSAPGDEIIVERVERVKKRRVASQWKLVRSSPLRVGPRCKAFGKCGGCTLQHLNYDYQLEFKRKKLKRILGFEVEVVPSPKIFGHRNRIDLAITKDGIGFRERGKWWKIVDIDECPVFGKTSREAIERLKEFIEEEKISVWNIKKDEGFLRYMVLREGKFTEEVMVNFVTKEGNLPDPTNYFDFDSIYWSVNRSKSDVSYGDIERFWGKEFIRERLDDVDYLIHPNSFFQTNSYQAVNLVRKVSELVEGEKILDMYSGVGTFGIYLAKRGFNVKGFDSNEFAIEMARRNVEINNVDAEFEVASDREVSVKGFDTVIVDPPRAGLHPRLVKRLNREKPGVIVYVSCNPETFARDVKMLDYRIDEIVALDMFPHTPHVELVAKLV	soluble
MSLRIEYNYRYYLTENEYKQYHIQLKGFIKKYVATKLADVGEVIHFAQAQQRQGRYVSLYLSYEAAKYFNHVMCTHSLAKDDIYAVAYSFEKAESINSTYEHQTSYVSKHHFSFVESSEVMMTNIKRVQQAIVEGETYQVNYTARLTDNIYYPISTLYERLTQFSNGNYTALLQTDEIQVASISPELFFQKGQFNNVDNVIISKPMKGTMPRGKTEAEDQQYYKTLQTSSKDRAENVMIVDLLRNDIGRISQSGSIKVYKLFFIEAYKTVFQMTSMVSGTLKTNTDLTQILTSLFPCGSITGAPKLNTMKYIKQFESSPRGIYCGAIGLLLPTEDDKMIFNIPIRTIEYKYGQAIYGVGAGITIDSKPKDEVNEFYAKTKILEMLEGHHHHHH	soluble
MTNVLIEDLKWRGLIYQQTDEQGIEDLLNKEQVTLYCGADPTADSLHIGHLLPFLTLRRFQEHGHRPIVLIGGGTGMIGDPSGKSEERVLQTEEQVDKNIEGISKQMHNIFEFGTDHGAVLVNNRDWLGQISLISFLRDYGKHVGVNYMLGKDSIQSRLEHGISYTEFTYTILQAIDFGHLNRELNCKIQVGGSDQWGNITSGIELMRRMYGQTDAYGLTIPLVTKSDGKKFGKSESGAVWLDAEKTSPYEFYQFWINQSDEDVIKFLKYFTFLGKEEIDRLEQSKNEAPHLREAQKTLAEEVTKFIHGEDALNDAIRISQALFSGDLKSLSAKELKDGFKDVPQVTLSNDTTNIVEVLIETGISPSKRQAREDVNNGAIYINGERQQDVNYALAPEDKIDGEFTIIRRGKKKYFMVNYQ	soluble
TQSLSNTFDSAIDDQLANVDVVMSGEKAPMPRGLIDELREDKDHVAAVAVQGATSAVLATEDRKAIQTGAASPTIGIFYGEGSAATTPEKITSGKEPHEANEVLAPESAAELGIKEGSTVVVVDEAGQREVKVVGTYSTEATAHPGVNLLMGEKAFLDRYQPEFIGTIFVKKADGSSEDVVQYLKDKYPDFKVDTGASLAEELTKTIKKALSFVNY	not soluble
SNAMIRFQPITTSDVQHYKFMEELLVESFPPEEYRELEHLREYTDRIGNFHNNIIFDDDLPIGFITYWDFDEFYYVEHFATNPALRNGGYGKRTLEHLCEFLKRPIVLEVERPVEEMAKRRINFYQRHGFTLWEKDYYQPPYKEGDDFLPMYLMVHGNLDAEKDYEGIRHKLHTIVYGVKE	soluble
SGVPVYICSSLKPDALAEAAEHQADGSFFVPRAKGLRTQKQWLAFYSESRGSVYVDEGAEHALSEQGKSLLMSGIAGIEGHFSRMDTVTVYSKATKQPLGKGRVLFGSAAAEDLLKSRKAKGVFIHRDDWISITPEIRLLLTEF	not soluble
MSLSYGVKLHVWGERALFTRPEMKVERVSYDIITPSAARGILEAIHWKPAIRWMVDSIQVLKPIRFESIRRNEVGGKLSAASVSKAIKAGRTDTLVSYVEEDRQQRAATLLRDVGYVIAAHFELTDKAGADDNVGKHLDIFNRRARRGQCFQAPCLGTREFPASFALIEDDAAMPAADATLAGERDLGWMLHDIDFADGMTPRFFRARMVDGQVEVPAPENGGVRAEGHHHHHH	soluble
MAHHHHHHMSALKDKTGRFVVLDKNASNYESLVDQEMNNVYERVMKLDPNQVEFLQAFHEILYSLKPLFMEEPKYLPIIETLSEPERAIQFRVCWLDDNGVQRKNRCFRVQYNSALGPYKGGLRFHPSVNLSIVKFLGFEQIFKNSLTGLSMGGGKGGSDFDPKGKSDNEILKFCQAFMNELYRHIGPCTDVPAGDIGVGGREIGYLYGQYKKIVNSFNGTLTGKNVKWGGSNLRVEATGYGLVYFVLEVLKSLNIPVEKQTAVVSGSGNVALYCVQKLLHLNVKVLTLSDSNGYVYEPNGFTHENLEFLIDLKEEKKGRIKEYLNHSSTAKYFPNEKPWGVPCTLAFPCATQNEINLEDAKLLQKNGCILVGEGANMPSTVDAINLFKSNNIIYCPSKAANAGGVAISGLEMSQNFQFSHWTRETVDEKLKEIMRNIFIACSENALKYTKNKYDLQAGANIAGFLKVAESYIEQGCF	soluble
MVYSWQHCPNTRSNTEAMMAHDWDEYAANWEKDPATHAFAQSVFEHLTKILSLQGKHILDFGCGTGLLSQRMSPFARDIVALDSSEAMIEELDRKELRNVEPVVDCLTRGLVAQHPAFRKQFDLVVASSVCAFLPNLQDVTDIIFTLVDEGGYFVHFDWLADGKSEIGLSTTEIESVLRNAGFSAVETRVAFDVTTAQGTQPVVVGIARK	not soluble
MSLAGDDAVNLTLVTGAPANGGSCVAHHEGRVVFVRYALPGERVRARVTAQRGSYWHAEAFEVIDPSPDRIGSLCSIAGADGAGCCDLAFAAPEAARTLKAQVVANQLERLGRHSWQGEAQPLSDAGPTGWRIRVRLDVGADRRPGFHRYHSGELVTDLDCGQLPVGMLDGLVAADWPPEAQLYVALDDDGERHVVCSVRQGPRNRTRTVTNVVEGAYHAHQRVHRRSWRVPVTAFWQAHRDAAAVYSDLIADWAQPAPGMTAWDLYGGAGVFAAVLGEAVGESGRVLTVDTSRLASGAARAALVDLPQVEVVTGSVRRVLAVQPAGADLAVLDPPRSGAGREVVDLLAGAGVPRLIHIGCEAASFARDIGLYRGHGYAVEKIKVFDAFPLTHYVECVALLTRKVEGHHHHHH	soluble
MTNYKIDFSKGLVPAILQDNQTKQVLMLGYMNQEAFDKTIEDGVVCFYSRSKQRLWTKGETSGHTQRVKDIHVDCDNDTILIDVIPNGPTCHTGSQSCFNTEVPFSVQTLAQTVQDSAQSNNEKSYTKYLLTEGIEKITKKYGEEAFEVVIEAIKGDKKAFVSEVADELYHLFVLMHALGVDFSEIEAELARRHHKRNNFKGERQNIEQWLEHHHHHH	not soluble
MPDLSAAEFTLLQGAHLFAPEDRGICDVLLANGKIIAVGAGIPGDIVPDCTVINLSGRMLCPGFIDQHVHLIGGGGEAGPTTRTPEVSLSRLTEAGITTVVGLLGTDSVSRHPASLLAKTRALNEEGITAWMLTGAYHVPSPTITGSVEKDVALIDRVIGVKCAVSDHRSAAPSGNQLASMAAESRVGGLLGGKPGVSVFHMGSSKKGLQPLYDILENSDVPIGKLLPTHVNRSESLFEQALAFALKGGVIDITTSIPDPVAPAEGIARAVKAGVPLSRVTLSSDGNGSQPLFDAAGNLTGIGVAGFESLLETLQTLVNHYGFSLANALRPLTTSVAAFLSLDGKGEIRPGNDADLLVFSADLRIEQVYARGKRMVNEGKACVKGTFEPA	not soluble
MGSDKIHHHHHHMLPLVKLIRGQDNTIVEADLVELWQKHVDDYANKWKEQLKLHGQSDKFWDWEFKLEFIINRQANREGFAIEYEDETQGLMLIETQMHGSRLVEGKRLVYIDGIATAPWNRAYIQRPPKLKGVGTAFLAFARTRSLELGYEGRVGLHSLPGVEEFYDNQGMIDVGEDEDYDDLVYFEYGVFRSPV	not soluble
MTDLEHAVESNRRAWDASADSHLRGGGWQELSLAVQETGFSCLDETLAGVLRNLDLAGKAAVQVGCNNGREVLSLYAFGVARAVGIDQSAAFLAQARQLAERSPHQPRFVEANAYELPAELNGQFDLLLITIGVLNWMPDIARFFASVSGLLKPGGQLAIYETHPFLEMLEPESERPFELRNDYFTDTPHVSREAIVYEGSGSDTGIASYWYVHPLGDILGGLLGAGLRLSHFKEYPHSNREELYDLYEDGPLAIPMCYTLVAVKA	soluble
